# Results published in the supplement of paper PMC10126150.
# ± gives the standard deviation of the averaged measurements.
# System: ATP
# Assay: switch fluorescence ratio, 500 uM ATP over buffer (Cy3 cluster intensity, sum of 5 cycles each) (fold (ratio)); higher = stronger signal-on switching upon ATP binding; sequences stand for … in TCGTCGGCAGCGTCAGATGTGTATAAGAGACAGTTTTTTTTTTTTTTTTTTTTTTTTT…TC
# Conditions: aptamer strand: ATP DNA aptamer (quencher-CACCTGGGGGAGTATTGCGGAGGAAGG + anchor), 100 nM annealed; ATP concentration: 500 uM
# In short: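 Clusters with intensities outside 100-1000 RFU were excluded. The remaining Cy3-labelled switching-strand clusters on a modified Illumina MiSeq flow-cell had been annealed to 100 nM quencher-labelled ATP aptamer and imaged in selection buffer, then after 15 min with 500 uM ATP at 22 °C, for five cycles separated by NaOH stripping and re-annealing. The fluorescence ratio, averaged per switch-domain sequence, is each cluster's summed target-cycle Cy3 intensity over its summed buffer-cycle Cy3 intensity.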
# 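Note: ATP exposure 15 min at 22 °C before imaging.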
row,Sequence,switch fluorescence ratio
1,TATCCCGGCG,0.9977 ± 0.0082
2,TATCCGAGGT,1.16 ± 0.26
3,TATCCGGAAT,1.79 ± 0.76
4,TATCGCAATG,3.63 ± 0.32
5,TATCGGCGAG,1.02 ± 0.046
6,TATCGGGAGC,0.986 ± 0.026
7,TATCGGGATA,0.994 ± 0.021
8,TATCGTAGGC,0.9996 ± 0.00057
9,TATCGTCGGG,1.008 ± 0.0064
10,TATCTAAAGT,1.01 ± 0.029
11,TATCTAAATA,1.007 ± 0.007
12,TATCTAGGGC,1.025 ± 0.0042
13,TATCTAGGGG,0.981 ± 0.035
14,TATCTAGGTT,1 ± 0.02
15,TATCTATCCG,0.985 ± 0.039
16,TATCTATCTT,0.994 ± 0.0066
17,TATCTCAACG,1.045 ± 0.006
18,TATCTGGGGG,1.01 ± 0.055
19,TATCTGTATA,1.11 ± 0.17
20,TATCTTAAAT,0.997 ± 0.028
21,TATCTTGCAT,0.97 ± 0.048
22,TATCTTTGGG,0.981 ± 0.026
23,TATGAAAGTG,0.983 ± 0.035
24,TATGAAATAG,0.99 ± 0.034
25,TATGAAGGGG,1.22 ± 0.34

row,Sequence,switch fluorescence ratio
1,TATGAATTGG,1 ± 0.018
2,TATGACGTTA,1 ± 0.048
3,TATGAGATTA,0.9935 ± 0.004
4,TATGAGGAAC,1.09 ± 0.14
5,TATGAGGCTT,0.999 ± 0.028
6,TATGAGGGGT,1.13 ± 0.047
7,TATGATAGGC,0.953 ± 0.058
8,TATGATGTGC,0.969 ± 0.017
9,TATGATTTGT,1 ± 0.019
10,TATGATTTTG,0.993 ± 0.02
11,TATGCATTAA,1.01 ± 0.021
12,TATGCCGGGG,0.988 ± 0.057
13,TATGCGGGGC,1.1 ± 0.12
14,TATGCTAAGG,0.996 ± 0.025
15,TATGGACA,1.05 ± 0.01
16,TATGGACGTT,1.03 ± 0.053
17,TATGGAGGGC,1.06 ± 0.041
18,TATGGATCTT,0.983 ± 0.027
19,TATGGATGGG,0.961 ± 0.02
20,TATGGATTGG,0.977 ± 0.029
21,TATGGCATGG,1 ± 0.05
22,TATGGCCAGT,1.03 ± 0.033
23,TATGGCCGCC,1.01 ± 0.043
24,TATGGCGACA,1.01 ± 0.087
25,TATGGGAGGC,1.01 ± 0.059

row,Sequence,switch fluorescence ratio
1,TATGGGCACG,0.99 ± 0.024
2,TATGGGCCAG,0.996 ± 0.02
3,TATGGGGAGC,0.998 ± 0.044
4,TATGGGGAGT,0.981 ± 0.046
5,TATGGGGATT,0.991 ± 0.037
6,TATGGGGGTG,1.05 ± 0.043
7,TATGGGGTGG,1.01 ± 0.015
8,TATGGGGTTA,0.981 ± 0.028
9,TATGGGGTTG,1.03 ± 0.12
10,TATGGGTACT,1 ± 0.027
11,TATGGGTTTG,0.994 ± 0.04
12,TATGGTATCT,0.994 ± 0.024
13,TATGGTCACC,1.03 ± 0.03
14,TATGGTCATA,0.999 ± 0.032
15,TATGGTCATT,0.99 ± 0.015
16,TATGGTCCTG,0.962 ± 0.023
17,TATGGTTG,0.99 ± 0.057
18,TATGGTTTCC,1.03 ± 0.05
19,TATGTAAATT,1.01 ± 0.012
20,TATGTAATGG,1.02 ± 0.036
21,TATGTAGAGA,0.99 ± 0.023
22,TATGTATGC,1.03 ± 0.014
23,TATGTCATCG,1.01 ± 0.028
24,TATGTCGCCA,1.01 ± 0.024
25,TATGTGTGCG,1.02 ± 0.017

row,Sequence,switch fluorescence ratio
1,TATGTGTTTT,1.031 ± 0.0034
2,TATGTTACGG,1.03 ± 0.0075
3,TATGTTGGGT,1.02 ± 0.037
4,TATGTTGTTT,1.04 ± 0.023
5,TATGTTTGGC,1 ± 0.04
6,TATGTTTTAT,1.02 ± 0.048
7,TATTAAGAAT,0.987 ± 0.0043
8,TATTAAGGAT,1 ± 0.031
9,TATTAATAGA,0.999 ± 0.061
10,TATTAATCTT,1.02 ± 0.014
11,TATTACACTG,1.03 ± 0.033
12,TATTACGGCG,1.02 ± 0.03
13,TATTACTATT,0.999 ± 0.023
14,TATTAGAGCG,1.02 ± 0.025
15,TATTAGGGGT,1.01 ± 0.023
16,TATTAGTGGC,0.9403 ± 0.0088
17,TATTAGTTTT,1.02 ± 0.047
18,TATTATAAAT,0.98 ± 0.016
19,TATTATAGAT,0.99997 ± 0.00069
20,TATTATCGGA,0.996 ± 0.048
21,TATTATGGCG,1.04 ± 0.014
22,TATTATGGGA,0.991 ± 0.035
23,TATTATGGGT,0.982 ± 0.036
24,TATTATTGGA,1 ± 0.042
25,TATTATTGGG,1 ± 0.0054

row,Sequence,switch fluorescence ratio
1,TATTCCTTGG,0.966 ± 0.012
2,TATTCCTTTT,1.01 ± 0.013
3,TATTCGGAGC,1.01 ± 0.037
4,TATTCGGGGT,0.99 ± 0.028
5,TATTGACAGA,1.022 ± 0.0053
6,TATTGACATT,1.016 ± 0.0071
7,TATTGAGACC,1.03 ± 0.036
8,TATTGAGATG,0.998 ± 0.046
9,TATTGATTGG,0.9977 ± 0.0062
10,TATTGCCAGG,1.1 ± 0.036
11,TATTGCCGCA,1.057 ± 0.0085
12,TATTGCTATT,0.972 ± 0.017
13,TATTGCTTTC,1.03 ± 0.018
14,TATTGGAGTT,1.04 ± 0.015
15,TATTGGATGC,0.97 ± 0.032
16,TATTGGATTA,1.01 ± 0.026
17,TATTGGCTTG,0.985 ± 0.013
18,TATTGGGAAT,0.985 ± 0.01
19,TATTGGGCCC,0.9954 ± 0.0019
20,TATTGTCGTT,1.02 ± 0.029
21,TATTGTGATA,0.991 ± 0.039
22,TATTGTGCGG,1.01 ± 0.037
23,TATTGTGGAG,0.983 ± 0.024
24,TATTGTGGTT,1 ± 0.031
25,TATTGTTAAA,0.987 ± 0.029

row,Sequence,switch fluorescence ratio
1,TATTGTTATG,1 ± 0.028
2,TATTGTTTGA,0.9578 ± 0.0067
3,TATTTAAAGC,0.9768 ± 0.0092
4,TATTTAAAGT,1.02 ± 0.049
5,TATTTAAT,1.07 ± 0.11
6,TATTTAATGA,1.54 ± 0.81
7,TATTTACCGC,1.13 ± 0.034
8,TATTTAGGTT,1.006 ± 0.006
9,TATTTAGTCG,0.975 ± 0.019
10,TATTTATACA,1.029 ± 0.0054
11,TATTTATTGC,1.01 ± 0.037
12,TATTTATTTG,1.02 ± 0.045
13,TATTTCGAAC,1.02 ± 0.015
14,TATTTCTCGT,1.01 ± 0.056
15,TATTTGATGC,1.02 ± 0.036
16,TATTTGATTG,1.001 ± 0.0041
17,TATTTGCGCG,0.967 ± 0.037
18,TATTTGGGTG,1.05 ± 0.023
19,TATTTGGTTG,0.995 ± 0.018
20,TATTTTAGGT,1.01 ± 0.048
21,TATTTTAGTA,1.01 ± 0.03
22,TATTTTATTA,1.011 ± 0.0085
23,TATTTTCGGG,1.011 ± 0.0078
24,TATTTTGGGA,1.02 ± 0.021
25,TATTTTGTGA,0.952 ± 0.018

row,Sequence,switch fluorescence ratio
1,TATTTTGTTA,1.01 ± 0.047
2,TATTTTTAGT,1 ± 0.027
3,TATTTTTATT,1.01 ± 0.021
4,TATTTTTCGG,0.984 ± 0.041
5,TATTTTTGCT,0.981 ± 0.032
6,TATTTTTTTC,1 ± 0.018
7,TCAAACGTAT,1.06 ± 0.022
8,TCAAAGAATA,1.02 ± 0.029
9,TCAAAGTCAT,0.991 ± 0.0068
10,TCAAAGTCCT,1.01 ± 0.02
11,TCAAAGTTTT,1.01 ± 0.023
12,TCAAATTAGC,0.986 ± 0.023
13,TCAAATTTTC,1.02 ± 0.026
14,TCAACAGGGA,1.08 ± 0.15
15,TCAAGAAGGT,1 ± 0.018
16,TCAAGAGTTA,0.99 ± 0.035
17,TCAAGGGTGA,1.03 ± 0.022
18,TCAAGTATCA,1.02 ± 0.02
19,TCAAGTGGGG,1.01 ± 0.053
20,TCAAGTTAAG,0.9772 ± 0.0014
21,TCAAGTTTTT,1.012 ± 0.0044
22,TCAATATGTT,1.004 ± 0.0073
23,TCAATCAGAG,1.01 ± 0.0045
24,TCAATCGTGG,1.01 ± 0.021
25,TCAATCTGGG,1.006 ± 0.0066

row,Sequence,switch fluorescence ratio
1,TCAATCTTCT,1.032 ± 0.0095
2,TCAATGATGG,1 ± 0.0046
3,TCAATTATAC,1.94 ± 0.41
4,TCAATTCTAC,1.02 ± 0.041
5,TCAATTTGTT,0.992 ± 0.033
6,TCACAGCTGG,1.04 ± 0.016
7,TCACAGGTTT,1.05 ± 0.017
8,TCACATAGTT,1.01 ± 0.0061
9,TCACATTATT,1.04 ± 0.02
10,TCACCTTATT,1.03 ± 0.022
11,TCACGAACCT,1.69 ± 0.1
12,TCACGAGTTT,1.014 ± 0.0038
13,TCACGGAAGT,1.022 ± 0.0036
14,TCACGGGGGC,0.976 ± 0.061
15,TCACGGGTTC,1.03 ± 0.031
16,TCACGTGGCT,0.975 ± 0.015
17,TCACGTTGTT,0.981 ± 0.036
18,TCACTATACA,1.315 ± 0.0077
19,TCACTATTTA,1.013 ± 0.0082
20,TCACTATTTT,1.01 ± 0.02
21,TCAGAAGGCT,0.999 ± 0.065
22,TCAGAATATT,0.978 ± 0.023
23,TCAGAGATGA,0.95 ± 0.026
24,TCAGAGGCTT,0.996 ± 0.04
25,TCAGAGTGCT,1.03 ± 0.025
